Data published in the supplement of paper PMC10126150.
± gives the standard deviation of the averaged measurements.

Tested on: ATP
Test: switch fluorescence ratio, 500 uM ATP over buffer (Cy3 cluster intensity, sum of 5 cycles each) (fold (ratio)); higher = stronger signal-on switching upon ATP binding; sequences stand for … in TCGTCGGCAGCGTCAGATGTGTATAAGAGACAGTTTTTTTTTTTTTTTTTTTTTTTTT…TC
Conditions: aptamer strand: ATP DNA aptamer (quencher-CACCTGGGGGAGTATTGCGGAGGAAGG + anchor), 100 nM annealed; ATP concentration: 500 uM
Procedure, shortened: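 Clusters with intensities outside 100-1000 RFU were excluded. The remaining Cy3-labelled switching-strand clusters on a modified Illumina MiSeq flow-cell had been annealed to 100 nM quencher-labelled ATP aptamer and imaged in selection buffer, then after 15 min with 500 uM ATP at 22 °C, for five cycles separated by NaOH stripping and re-annealing. The fluorescence ratio, averaged per switch-domain sequence, is each cluster's summed target-cycle Cy3 intensity over its summed buffer-cycle Cy3 intensity.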
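Note: ATP exposure 15 min at 22 °C before imaging.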

Row | Sequence | switch fluorescence ratio
1 | GGTTCACGGC | 1.03 ± 0.015
2 | GGTTCACGGT | 0.994 ± 0.026
3 | GGTTCAGAGA | 0.973 ± 0.033
4 | GGTTCATTCT | 0.9917 ± 0.0062
5 | GGTTCCACGC | 1.09 ± 0.025
6 | GGTTCCCACT | 0.9919 ± 0.0045
7 | GGTTCGCGGT | 1.02 ± 0.03
8 | GGTTCTACAT | 0.998 ± 0.03
9 | GGTTCTGTGG | 1.03 ± 0.0094
10 | GGTTCTGTGT | 0.99 ± 0.012
11 | GGTTGAAGTT | 0.986 ± 0.0077
12 | GGTTGAATGT | 0.9843 ± 0.0074
13 | GGTTGAATTA | 0.979 ± 0.051
14 | GGTTGACATA | 1.01 ± 0.025
15 | GGTTGACCTG | 1 ± 0.032
16 | GGTTGAGTGT | 0.9836 ± 0.0046
17 | GGTTGATGAT | 0.975 ± 0.033
18 | GGTTGATGTT | 0.969 ± 0.059
19 | GGTTGATTAT | 0.9793 ± 0.0065
20 | GGTTGCACAG | 1.005 ± 0.0043
21 | GGTTGCAGTC | 0.946 ± 0.025
22 | GGTTGCGTTT | 0.9997 ± 0.001
23 | GGTTGCTCGT | 1.008 ± 0.0092
24 | GGTTGGAAGG | 0.9761 ± 0.0047
25 | GGTTGGATCG | 0.9987 ± 0.0047

Row | Sequence | switch fluorescence ratio
26 | GGTTGGCAGG | 1 ± 0.038
27 | GGTTGGCGGG | 1.07 ± 0.021
28 | GGTTGGCGTT | 0.961 ± 0.03
29 | GGTTGGCTTT | 1.01 ± 0.069
30 | GGTTGGGACT | 0.994 ± 0.028
31 | GGTTGGGGAT | 0.979 ± 0.016
32 | GGTTGGGGTG | 1.01 ± 0.037
33 | GGTTGGTTGG | 0.9769 ± 0.0012
34 | GGTTGTCTCG | 0.951 ± 0.021
35 | GGTTGTGACG | 1 ± 0.08
36 | GGTTGTGTGT | 1 ± 0.005
37 | GGTTGTGTTT | 0.991 ± 0.003
38 | GGTTGTTGTT | 0.978 ± 0.029
39 | GGTTGTTTTT | 1.01 ± 0.032
40 | GGTTTAAGAA | 1.02 ± 0.023
41 | GGTTTACGTC | 0.9998 ± 0.0082
42 | GGTTTACTTC | 0.9967 ± 0.0016
43 | GGTTTAGGTT | 1.01 ± 0.029
44 | GGTTTAGTGA | 0.998 ± 0.034
45 | GGTTTATATT | 1.01 ± 0.05
46 | GGTTTATGAA | 0.999 ± 0.018
47 | GGTTTATTAA | 0.983 ± 0.011
48 | GGTTTCAGAT | 0.975 ± 0.016
49 | GGTTTCATAG | 0.976 ± 0.013
50 | GGTTTCGCGC | 1.01 ± 0.013

Row | Sequence | switch fluorescence ratio
51 | GGTTTCGGAA | 1 ± 0.034
52 | GGTTTCGGGC | 1.03 ± 0.044
53 | GGTTTCGGGT | 0.984 ± 0.0011
54 | GGTTTCTCGT | 0.967 ± 0.04
55 | GGTTTCTGCT | 1.02 ± 0.03
56 | GGTTTGACTA | 0.9857 ± 0.0066
57 | GGTTTGGTAG | 0.9873 ± 0.0029
58 | GGTTTGTAAC | 0.978 ± 0.029
59 | GGTTTGTTAT | 1 ± 0.014
60 | GGTTTTCCGG | 1.01 ± 0.046
61 | GGTTTTCGGC | 0.9771 ± 0.0087
62 | GGTTTTCTCA | 1.002 ± 0.008
63 | GGTTTTGCTT | 0.96 ± 0.034
64 | GGTTTTGTAT | 0.993 ± 0.024
65 | GGTTTTTAAT | 0.985 ± 0.031
66 | GGTTTTTACG | 0.985 ± 0.061
67 | GGTTTTTGCG | 1.0217 ± 0.0008
68 | GGTTTTTTAG | 0.996 ± 0.021
69 | GGTTTTTTGC | 1.01 ± 0.04
70 | GTAAAAACTC | 1.03 ± 0.024
71 | GTAAACGGTA | 1.08 ± 0.064
72 | GTAAACGGTG | 0.979 ± 0.032
73 | GTAAATAGCT | 1.02 ± 0.073
74 | GTAAATAGGC | 0.993 ± 0.023
75 | GTAAATAGTC | 1.03 ± 0.065

Row | Sequence | switch fluorescence ratio
76 | GTAAATGGGG | 0.975 ± 0.011
77 | GTAACAGGGT | 0.999 ± 0.023
78 | GTAACCCCGG | 1.07 ± 0.025
79 | GTAACGGCCG | 1.16 ± 0.18
80 | GTAACGGGGA | 0.995 ± 0.072
81 | GTAACGGGGC | 0.982 ± 0.049
82 | GTAACTAGAG | 0.997 ± 0.033
83 | GTAAGATTAT | 0.985 ± 0.067
84 | GTAAGGAGGT | 0.976 ± 0.023
85 | GTAAGTAAAA | 1.03 ± 0.089
86 | GTAAGTATGT | 1.01 ± 0.011
87 | GTAAGTGAAG | 1.05 ± 0.014
88 | GTAATAAGAG | 1.004 ± 0.0063
89 | GTAATAAGGT | 1.02 ± 0.023
90 | GTAATACCAA | 1.03 ± 0.058
91 | GTAATATTAA | 1.0073 ± 0.00065
92 | GTAATGAGCG | 0.998 ± 0.044
93 | GTAATGCTTA | 1.011 ± 0.005
94 | GTAATGGGGG | 1.09 ± 0.071
95 | GTAATTCGGG | 0.9809 ± 0.0073
96 | GTAATTGCGG | 0.9765 ± 0.0056
97 | GTAATTTGGG | 0.982 ± 0.019
98 | GTAATTTTTC | 1.01 ± 0.053
99 | GTACGGGAAG | 1.19 ± 0.1
100 | GTACTCGGGG | 0.9991 ± 0.0074
